Two molecules from patent US20120213785A1 can be followed below.

Assay [1] addresses human Notch3 receptor, full-length (human) (UniProt Q9UM47). Nature of the assay: FACS on Sup-T1 cells naturally expressing Notch3.
Assay [2] concerns the target Notch3-LD/Fc fusion protein (human Notch3 LIN12/dimerization domain fused to human gamma 1 Fc) (human) [IgG part: P01857]. Put plainly: ELISA, plate coated with Notch3-LD/Fc, hybridoma supernatant. (In an ELISA, binding on a coated surface is turned into a signal by an enzyme label.)
For assay [3] the target is unchanged. Nature of the assay: ELISA on Notch3-LD/Fc.
In assay [4] the target is human Notch3 receptor, full-length (human) (UniProt Q9UM47). Nature of the assay: FACS on 293T cells expressing Notch3 (Notch3/Hyg).
A further assay addresses Notch3-D2/Fc (human) (UniProt Q9UM47). Nature of the assay: ELISA on Notch3-domain/Fc fusion proteins.
In another assay the target is Notch3-D1/Fc (human) (UniProt Q9UM47). Nature of the assay: ELISA on Notch3-domain/Fc fusion proteins.

Sequence of Notch3-LD/Fc fusion protein (human Notch3 LIN12/dimerization domain fused to human gamma 1 Fc) (human) [IgG part: P01857] (P01857 other isoform, or with tags, fused parts or gaps limits assumed): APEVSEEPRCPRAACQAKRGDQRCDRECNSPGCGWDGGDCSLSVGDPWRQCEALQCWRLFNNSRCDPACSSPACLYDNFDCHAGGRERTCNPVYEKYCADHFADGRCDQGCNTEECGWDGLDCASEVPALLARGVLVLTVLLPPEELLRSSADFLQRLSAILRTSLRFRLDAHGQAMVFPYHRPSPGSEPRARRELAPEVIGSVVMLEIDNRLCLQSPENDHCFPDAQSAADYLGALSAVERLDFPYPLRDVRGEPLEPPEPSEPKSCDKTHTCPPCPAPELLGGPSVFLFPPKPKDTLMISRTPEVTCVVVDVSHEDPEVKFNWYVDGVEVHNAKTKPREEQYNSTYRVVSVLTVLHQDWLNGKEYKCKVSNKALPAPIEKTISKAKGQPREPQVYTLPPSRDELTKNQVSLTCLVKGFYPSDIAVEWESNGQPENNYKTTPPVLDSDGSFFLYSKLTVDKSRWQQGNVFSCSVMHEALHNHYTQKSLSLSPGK
Sequence of human Notch3 receptor, full-length (human) (Q9UM47 40-2321 A2223V limits assumed): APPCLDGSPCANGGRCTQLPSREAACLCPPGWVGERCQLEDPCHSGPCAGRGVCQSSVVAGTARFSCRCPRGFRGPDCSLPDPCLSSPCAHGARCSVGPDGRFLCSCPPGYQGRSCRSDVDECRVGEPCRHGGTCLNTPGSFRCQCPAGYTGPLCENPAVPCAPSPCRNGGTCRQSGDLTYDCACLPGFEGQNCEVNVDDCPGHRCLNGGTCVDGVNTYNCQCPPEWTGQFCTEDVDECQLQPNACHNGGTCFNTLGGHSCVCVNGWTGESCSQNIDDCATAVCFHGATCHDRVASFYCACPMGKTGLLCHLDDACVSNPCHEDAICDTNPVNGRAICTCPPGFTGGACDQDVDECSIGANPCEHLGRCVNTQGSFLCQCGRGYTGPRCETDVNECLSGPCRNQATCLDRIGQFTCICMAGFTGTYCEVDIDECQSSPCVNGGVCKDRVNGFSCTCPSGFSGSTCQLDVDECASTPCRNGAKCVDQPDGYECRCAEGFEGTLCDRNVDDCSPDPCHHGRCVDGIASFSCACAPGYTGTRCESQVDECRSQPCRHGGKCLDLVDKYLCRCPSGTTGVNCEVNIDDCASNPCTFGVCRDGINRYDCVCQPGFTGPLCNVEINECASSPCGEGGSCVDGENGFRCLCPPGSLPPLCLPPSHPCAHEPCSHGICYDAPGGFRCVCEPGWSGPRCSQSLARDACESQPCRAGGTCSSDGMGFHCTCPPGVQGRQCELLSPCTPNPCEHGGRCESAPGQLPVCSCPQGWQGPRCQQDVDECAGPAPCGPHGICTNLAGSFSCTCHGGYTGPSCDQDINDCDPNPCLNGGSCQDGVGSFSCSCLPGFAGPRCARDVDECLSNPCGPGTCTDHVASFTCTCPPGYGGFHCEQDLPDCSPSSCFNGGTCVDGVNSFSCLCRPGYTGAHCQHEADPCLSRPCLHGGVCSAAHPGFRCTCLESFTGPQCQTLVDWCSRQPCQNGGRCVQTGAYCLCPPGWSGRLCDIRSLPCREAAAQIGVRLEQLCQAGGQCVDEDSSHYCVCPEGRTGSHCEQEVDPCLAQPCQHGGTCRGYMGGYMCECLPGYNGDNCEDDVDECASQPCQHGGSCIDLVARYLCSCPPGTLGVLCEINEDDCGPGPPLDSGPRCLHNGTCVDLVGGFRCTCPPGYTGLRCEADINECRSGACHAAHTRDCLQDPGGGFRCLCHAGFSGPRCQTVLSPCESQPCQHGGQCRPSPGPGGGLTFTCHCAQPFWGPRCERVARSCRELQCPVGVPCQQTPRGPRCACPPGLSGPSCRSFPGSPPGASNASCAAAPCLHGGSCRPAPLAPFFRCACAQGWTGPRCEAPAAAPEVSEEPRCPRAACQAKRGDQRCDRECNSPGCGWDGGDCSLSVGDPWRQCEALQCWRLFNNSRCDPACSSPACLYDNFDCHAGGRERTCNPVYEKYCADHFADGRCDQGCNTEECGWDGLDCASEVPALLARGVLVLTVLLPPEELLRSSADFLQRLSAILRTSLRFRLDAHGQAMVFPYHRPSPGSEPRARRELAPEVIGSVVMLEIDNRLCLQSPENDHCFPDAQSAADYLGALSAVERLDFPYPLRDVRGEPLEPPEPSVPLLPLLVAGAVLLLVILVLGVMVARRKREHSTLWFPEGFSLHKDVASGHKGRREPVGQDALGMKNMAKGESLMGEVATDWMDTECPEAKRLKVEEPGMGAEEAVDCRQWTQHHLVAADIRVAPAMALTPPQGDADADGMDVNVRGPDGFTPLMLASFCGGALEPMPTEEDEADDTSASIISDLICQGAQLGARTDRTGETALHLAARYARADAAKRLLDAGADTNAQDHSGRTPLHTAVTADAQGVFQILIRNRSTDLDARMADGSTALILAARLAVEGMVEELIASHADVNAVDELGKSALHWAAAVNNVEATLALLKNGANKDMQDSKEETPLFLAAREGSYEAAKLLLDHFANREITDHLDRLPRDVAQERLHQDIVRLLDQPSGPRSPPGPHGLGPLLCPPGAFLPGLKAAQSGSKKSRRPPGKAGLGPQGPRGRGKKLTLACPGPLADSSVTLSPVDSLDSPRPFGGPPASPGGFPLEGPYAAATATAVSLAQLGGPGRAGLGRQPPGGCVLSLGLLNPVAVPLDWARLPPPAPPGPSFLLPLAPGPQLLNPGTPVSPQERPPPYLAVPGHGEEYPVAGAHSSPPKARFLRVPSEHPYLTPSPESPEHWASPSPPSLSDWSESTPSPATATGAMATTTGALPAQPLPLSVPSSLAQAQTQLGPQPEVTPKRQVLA

On to Control IgG1 MAb (antibody), for which the mean fluorescent intensity in assay [1] came to 24.5 MFI; in assay [4], 24.2 MFI. The ELISA OD reading (mean) was 0.019 OD (450 nm) in assay [2] and 0.063 OD in assay [3].

B1: anti-Notch3 monoclonal antibody MAb 256A-13 (antibody, IgG1, V domains shown)
VH: SQVQLQQSGAELAKPGTSVKMACKASGYTFTTHWMNWVKQRPGQGLEWIGTINPSNDFTDCNQKFKDKAILTADKSSSTAYMQLSSLTSEDSAIYYCASGLTARAWFAYWGQGTLVTVSAA
VL: RATISCRASQSVTTSNYSYMHWFQQKPGQPPKLLIKYASNLDSGVPARFSGSGSGTDFTLNIHPVEEEDTATFYCQHSWEIPYTFGGGTNLEIKRADAAPTV
For B1, the ELISA OD reading with Notch3-D2/Fc (human) and with Notch3-D1/Fc (human) was 0.015 OD throughout.
